Data reported in publication PMC3042367 (Biochemistry, 2010).

Target: R831b MerB (organomercurial lyase), unliganded (Serratia marcescens (plasmid R831b), UniProt P77072 1-212)
Assay: stopped-flow fluorescence kinetics

Sequence of R831b MerB (organomercurial lyase), unliganded (P77072 whole entry): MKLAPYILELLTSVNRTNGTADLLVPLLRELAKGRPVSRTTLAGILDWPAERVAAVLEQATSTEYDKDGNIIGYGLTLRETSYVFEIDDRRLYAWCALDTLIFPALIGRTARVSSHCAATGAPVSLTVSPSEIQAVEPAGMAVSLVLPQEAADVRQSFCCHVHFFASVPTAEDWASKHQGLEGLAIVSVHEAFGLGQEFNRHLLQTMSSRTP

B1: HgNmerA, 1:1 Hg(II) complex of pDU1358 NmerA (domain or fragment, Serratia marcescens (plasmid pDU1358), UniProt P08662 1-69, looked up)
chain: MTHLKITGMTCDSCAAHVKEALEKVPGVQSAIVSYAKGAAQLALDPGTAPDALTAAVAGLGYKAMLADA
modifications: also: 1:1 Hg(II) complex bound to Cys11 and Cys14 (CXXC motif)
  Kd: 660 µM
  koff: 330 s⁻¹
  kon: 500000 M⁻¹ s⁻¹
